Holding throughout (assay): cell-based or functional assay
Assay [1] deals with T1, human CD28 on human primary CD3+ T cells (human, UniProt P10747 19-220).
In assay [2] the target is T1, human CD28 on human primary CD3+ T cells. This is another data set of the same source.
Assay [3] shares this target. The source holds these as a separate data set.
For assay [4] the target is unchanged. The source holds these as a separate data set.

The text below walks through data of US20260258146A1 (Regeneron, published 2026).

B1: bsAb6031 (bispecific antibody, human IgG4 S228P, kappa)
heavy 1: EVQLVESGGGLVQPGRSLRLSCAASGFTFDDYAMHWVRQAPGKGLEWVSGISWKSDNIGYADSVKGRFTISRDNAKNSLYLQMNSLRAEDTALYYCAKALGGWKFDYYYGMDVWGQGTTVTVSSASTKGPSVFPLAPCSRSTSESTAALGCLVKDYFPEPVTVSWNSGALTSGVHTFPAVLQSSGLYSLSSVVTVPSSSLGTKTYTCNVDHKPSNTKVDKRVESKYGPPCPPCPAPPVAGPSVFLFPPKPKDTLMISRTPEVTCVVVDVSQEDPEVQFNWYVDGVEVHNAKTKPREEQFNSTYRVVSVLTVLHQDWLNGKEYKCKVSNKGLPSSIEKTISKAKGQPREPQVYTLPPSQEEMTKNQVSLTCLVKGFYPSDIAVEWESNGQPENNYKTTPPVLDSDGSFFLYSRLTVDKSRWQEGNVFSCSVMHEALHNHYTQKSLSLSLGK
heavy 2: EVQLVESGGGLVQPGGSLRLSCAASGFTFSRNNMHWVRQAPGKGLEYVSGISSNGGRTYYADSVKGRFTISRDNSKNTLYLQMGGLRAADMAVYFCTRDDELLSFDYWGQGTLVTVSSASTKGPSVFPLAPCSRSTSESTAALGCLVKDYFPEPVTVSWNSGALTSGVHTFPAVLQSSGLYSLSSVVTVPSSSLGTKTYTCNVDHKPSNTKVDKRVESKYGPPCPPCPAPPVAGPSVFLFPPKPKDTLMISRTPEVTCVVVDVSQEDPEVQFNWYVDGVEVHNAKTKPREEQFNSTYRVVSVLTVLHQDWLNGKEYKCKVSNKGLPSSIEKTISKAKGQPREPQVYTLPPSQEEMTKNQVSLTCLVKGFYPSDIAVEWESNGQPENNYKTTPPVLDSDGSFFLYSRLTVDKSRWQEGNVFSCSVMHEALHNRFTQKSLSLSPGK
light: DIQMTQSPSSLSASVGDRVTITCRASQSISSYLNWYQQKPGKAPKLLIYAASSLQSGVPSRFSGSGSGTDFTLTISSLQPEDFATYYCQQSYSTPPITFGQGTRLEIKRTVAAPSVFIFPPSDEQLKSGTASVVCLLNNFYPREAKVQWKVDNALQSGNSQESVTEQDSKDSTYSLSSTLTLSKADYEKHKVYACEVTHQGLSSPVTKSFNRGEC
For B1, in assay [1], the “EC50 IL2 release; T cells + HEK293/hCD20/hCD38; bsAb6031 + TAAxCD3” value was 0.199 nM, the “EC50 IL2 release; T cells + MOLP8; bsAb6031 + IgG4^P” value came to 0.653 nM and the “EC50 IL2 release; T cells + MOLP8; bsAb6031 + TAAxCD3” value was 1.02 nM. Moreover, in assay [2], the “EC50 T-cell proliferation; T cells + HEK293/hCD20/hCD38; bsAb6031 + TAAxCD3” value was determined as 0.143 nM and the “EC50 T-cell proliferation; T cells + MOLP8; bsAb6031 + IgG4^P” value came out at 0.467 nM. Further, in assay [3], the “EC50 IL2 release; T cells + NALM-6/hPD-L1; bsAb6031 + Cemiplimab” value amounted to 4.39 nM, the “EC50 IL2 release; T cells + NALM-6/hPD-L1; bsAb6031 + IgG4^P” value was found to be 2.64 nM, the “EC50 IL2 release; T cells + NALM-6; bsAb6031 + Cemiplimab” value stood at 2.44 nM and the “EC50 IL2 release; T cells + NALM-6; bsAb6031 + IgG4^P” value amounted to 1.68 nM. In assay [4], the “EC50 IFNγ release; T cells + HEK293/hCD20/hCD38; bsAb6031 + TAAxCD3” value came to 0.294 nM and the “EC50 IFNγ release; T cells + MOLP8; bsAb6031 + TAAxCD3” value turned out to be 0.748 nM.

B2: bsAb7945 (bispecific antibody, human IgG4 S228P, kappa)
heavy 1: QVQLVQSGAEVKKPGSSVKVSCKASGGPFRSSSFSWVRQAPGQGLEWMGGIIPILGKTNYAQKFQGRITIVTDESTTTVYMELSSLRSEDTAVFYCVRGSSLFDYWGQGTLVTVSSASTKGPSVFPLAPCSRSTSESTAALGCLVKDYFPEPVTVSWNSGALTSGVHTFPAVLQSSGLYSLSSVVTVPSSSLGTKTYTCNVDHKPSNTKVDKRVESKYGPPCPPCPAPPVAGPSVFLFPPKPKDTLMISRTPEVTCVVVDVSQEDPEVQFNWYVDGVEVHNAKTKPREEQFNSTYRVVSVLTVLHQDWLNGKEYKCKVSNKGLPSSIEKTISKAKGQPREPQVYTLPPSQEEMTKNQVSLTCLVKGFYPSDIAVEWESNGQPENNYKTTPPVLDSDGSFFLYSRLTVDKSRWQEGNVFSCSVMHEALHNHYTQKSLSLSLGK
heavy 2: QVQLQESGPGLVKPSETLSLTCTVSGGSISSYYWSWIRQPPGKGLEWIGYIYYSGITHYNPSLKSRVTISVDTSKIQFSLKLSSVTAADTAVYYCARWGVRRDYYYYGMDVWGQGTTVTVSSASTKGPSVFPLAPCSRSTSESTAALGCLVKDYFPEPVTVSWNSGALTSGVHTFPAVLQSSGLYSLSSVVTVPSSSLGTKTYTCNVDHKPSNTKVDKRVESKYGPPCPPCPAPPVAGPSVFLFPPKPKDTLMISRTPEVTCVVVDVSQEDPEVQFNWYVDGVEVHNAKTKPREEQFNSTYRVVSVLTVLHQDWLNGKEYKCKVSNKGLPSSIEKTISKAKGQPREPQVYTLPPSQEEMTKNQVSLTCLVKGFYPSDIAVEWESNGQPENNYKTTPPVLDSDGSFFLYSRLTVDKSRWQEGNVFSCSVMHEALHNRFTQKSLSLSPGK
light: not shown
As to B2, in assay [1], the “EC50 IL2 release; T cells + HEK293/hCD20/hCD38; bsAb7945 + IgG4^P” value was found to be 41.4 nM, the “EC50 IL2 release; T cells + HEK293/hCD20/hCD38; bsAb7945 + TAAxCD3” value worked out at 0.00502 nM and the “EC50 IL2 release; T cells + MOLP8; bsAb7945 + IgG4^P” value was 0.00971 nM. Moreover, in assay [2], the “EC50 T-cell proliferation; T cells + HEK293/hCD20/hCD38; bsAb7945 + IgG4^P” value amounted to 45.6 nM and the “EC50 T-cell proliferation; T cells + HEK293/hCD20/hCD38; bsAb7945 + TAAxCD3” value was determined as 0.000894 nM. Further, in assay [3], the “EC50 IL2 release; T cells + NALM-6/hPD-L1; bsAb7945 + Cemiplimab” value was 0.143 nM, the “EC50 IL2 release; T cells + NALM-6/hPD-L1; bsAb7945 + IgG4^P” value amounted to 0.169 nM and the “EC50 IL2 release; T cells + NALM-6; bsAb7945 + Cemiplimab” value was 0.0981 nM. For the same molecule, in assay [4], the “EC50 IFNγ release; T cells + HEK293/hCD20/hCD38; bsAb7945 + TAAxCD3” value was found to be 0.123 nM and the “EC50 IFNγ release; T cells + MOLP8; bsAb7945 + TAAxCD3” value was 0.00424 nM.
